T1: Human PTK7 Protein, His Tag (Acro Biosystems) (human, UniProt Q13308 31-704)
T1 construct: Bought His-tagged protein; also called CCK4; not shown: His tag
T1 sequence: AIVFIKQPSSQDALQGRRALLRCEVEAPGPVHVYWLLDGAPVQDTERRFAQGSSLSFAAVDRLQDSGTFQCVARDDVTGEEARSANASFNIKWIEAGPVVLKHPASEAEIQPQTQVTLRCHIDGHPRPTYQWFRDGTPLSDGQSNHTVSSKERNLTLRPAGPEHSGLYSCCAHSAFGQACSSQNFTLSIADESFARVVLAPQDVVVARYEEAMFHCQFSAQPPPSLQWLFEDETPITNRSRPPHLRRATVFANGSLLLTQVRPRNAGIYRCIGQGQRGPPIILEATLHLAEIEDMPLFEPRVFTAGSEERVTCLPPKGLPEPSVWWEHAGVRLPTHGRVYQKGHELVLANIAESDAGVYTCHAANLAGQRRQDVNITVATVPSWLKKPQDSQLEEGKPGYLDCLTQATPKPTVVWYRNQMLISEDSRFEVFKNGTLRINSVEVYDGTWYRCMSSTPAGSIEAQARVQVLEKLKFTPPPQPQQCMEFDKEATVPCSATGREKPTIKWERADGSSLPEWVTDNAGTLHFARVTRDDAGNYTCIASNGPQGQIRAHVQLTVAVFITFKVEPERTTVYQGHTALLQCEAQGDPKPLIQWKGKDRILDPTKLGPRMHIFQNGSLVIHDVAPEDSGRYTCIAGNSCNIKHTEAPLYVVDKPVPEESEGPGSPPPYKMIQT


Molecular target: T1, Human PTK7 Protein, His Tag (Acro …)
Test: BLI (Octet), antibody on anti-human Fc sensor, 50 nM PTK7; grade 2 = substantially similar binding relative to parent

Row | binding result | Binder
1 | binds | MYT11031 (antibody, V domains shown, MYT9361 HC variant) VH: EVQLVESGGGLVQPGGSLRLSCTASGLSLHSYWMSWVRQAPGKGLEWVGVISAGGNTYYANWAKGRFTISRDTSKNTVYLQMNSLRAEDTAVYFCARGDDGYTNAAYVSNLWGQGTLVTVSS VL: EIVMTQSPSTLSASVGDRVIITCQASQSISSWLSWYQQKPGKAPKLLIYKASTLASGVPSRFSGSGSGAEFTLTISSLQPDDFATYYCQSYFDSTTIAFGQGTKLTVL
2 | binds | MYT11042 (antibody, V domains shown, MYT9361 HC variant) VH: EVQLVESGGGLVQPGGSLRLSCTASGLSLSSYWMSWVRQAPGKGLEWVGVISAGHNTYYANWAKGRFTISRDTSKNTVYLQMNSLRAEDTAVYFCARGDDGYTNAAYVSNLWGQGTLVTVSS VL: EIVMTQSPSTLSASVGDRVIITCQASQSISSWLSWYQQKPGKAPKLLIYKASTLASGVPSRFSGSGSGAEFTLTISSLQPDDFATYYCQSYFDSTTIAFGQGTKLTVL
3 | binds | MYT11047 (antibody, V domains shown, MYT9361 HC variant) VH: EVQLVESGGGLVQPGGSLRLSCTASGLSLSSYWMSWVRQAPGKGLEWVGVISAGGNTYYHNWAKGRFTISRDTSKNTVYLQMNSLRAEDTAVYFCARGDDGYTNAAYVSNLWGQGTLVTVSS VL: EIVMTQSPSTLSASVGDRVIITCQASQSISSWLSWYQQKPGKAPKLLIYKASTLASGVPSRFSGSGSGAEFTLTISSLQPDDFATYYCQSYFDSTTIAFGQGTKLTVL
4 | binds | MYT11034 (antibody, V domains shown, MYT9361 HC variant) VH: EVQLVESGGGLVQPGGSLRLSCTASGLSLSSYHMSWVRQAPGKGLEWVGVISAGGNTYYANWAKGRFTISRDTSKNTVYLQMNSLRAEDTAVYFCARGDDGYTNAAYVSNLWGQGTLVTVSS VL: EIVMTQSPSTLSASVGDRVIITCQASQSISSWLSWYQQKPGKAPKLLIYKASTLASGVPSRFSGSGSGAEFTLTISSLQPDDFATYYCQSYFDSTTIAFGQGTKLTVL
5 | binds | MYT11036 (antibody, V domains shown, MYT9361 HC variant) VH: EVQLVESGGGLVQPGGSLRLSCTASGLSLSSYWMHWVRQAPGKGLEWVGVISAGGNTYYANWAKGRFTISRDTSKNTVYLQMNSLRAEDTAVYFCARGDDGYTNAAYVSNLWGQGTLVTVSS VL: EIVMTQSPSTLSASVGDRVIITCQASQSISSWLSWYQQKPGKAPKLLIYKASTLASGVPSRFSGSGSGAEFTLTISSLQPDDFATYYCQSYFDSTTIAFGQGTKLTVL
6 | binds | MYT11037 (antibody, V domains shown, MYT9361 HC variant) VH: EVQLVESGGGLVQPGGSLRLSCTASGLSLSSYWMSWVRQAPGKGLEWVGHISAGGNTYYANWAKGRFTISRDTSKNTVYLQMNSLRAEDTAVYFCARGDDGYTNAAYVSNLWGQGTLVTVSS VL: EIVMTQSPSTLSASVGDRVIITCQASQSISSWLSWYQQKPGKAPKLLIYKASTLASGVPSRFSGSGSGAEFTLTISSLQPDDFATYYCQSYFDSTTIAFGQGTKLTVL
7 | binds | MYT11039 (antibody, V domains shown, MYT9361 HC variant) VH: EVQLVESGGGLVQPGGSLRLSCTASGLSLSSYWMSWVRQAPGKGLEWVGVIHAGGNTYYANWAKGRFTISRDTSKNTVYLQMNSLRAEDTAVYFCARGDDGYTNAAYVSNLWGQGTLVTVSS VL: EIVMTQSPSTLSASVGDRVIITCQASQSISSWLSWYQQKPGKAPKLLIYKASTLASGVPSRFSGSGSGAEFTLTISSLQPDDFATYYCQSYFDSTTIAFGQGTKLTVL
8 | binds | MYT11035 (antibody, V domains shown, MYT9361 HC variant) VH: EVQLVESGGGLVQPGGSLRLSCTASGLSLSSYWHSWVRQAPGKGLEWVGVISAGGNTYYANWAKGRFTISRDTSKNTVYLQMNSLRAEDTAVYFCARGDDGYTNAAYVSNLWGQGTLVTVSS VL: EIVMTQSPSTLSASVGDRVIITCQASQSISSWLSWYQQKPGKAPKLLIYKASTLASGVPSRFSGSGSGAEFTLTISSLQPDDFATYYCQSYFDSTTIAFGQGTKLTVL
9 | binds | MYT11048 (antibody, V domains shown, MYT9361 HC variant) VH: EVQLVESGGGLVQPGGSLRLSCTASGLSLSSYWMSWVRQAPGKGLEWVGVISAGGNTYYAHWAKGRFTISRDTSKNTVYLQMNSLRAEDTAVYFCARGDDGYTNAAYVSNLWGQGTLVTVSS VL: EIVMTQSPSTLSASVGDRVIITCQASQSISSWLSWYQQKPGKAPKLLIYKASTLASGVPSRFSGSGSGAEFTLTISSLQPDDFATYYCQSYFDSTTIAFGQGTKLTVL
10 | binds | MYT11038 (antibody, V domains shown, MYT9361 HC variant) VH: EVQLVESGGGLVQPGGSLRLSCTASGLSLSSYWMSWVRQAPGKGLEWVGVHSAGGNTYYANWAKGRFTISRDTSKNTVYLQMNSLRAEDTAVYFCARGDDGYTNAAYVSNLWGQGTLVTVSS VL: EIVMTQSPSTLSASVGDRVIITCQASQSISSWLSWYQQKPGKAPKLLIYKASTLASGVPSRFSGSGSGAEFTLTISSLQPDDFATYYCQSYFDSTTIAFGQGTKLTVL
11 | binds | MYT11044 (antibody, V domains shown, MYT9361 HC variant) VH: EVQLVESGGGLVQPGGSLRLSCTASGLSLSSYWMSWVRQAPGKGLEWVGVISAGGNHYYANWAKGRFTISRDTSKNTVYLQMNSLRAEDTAVYFCARGDDGYTNAAYVSNLWGQGTLVTVSS VL: EIVMTQSPSTLSASVGDRVIITCQASQSISSWLSWYQQKPGKAPKLLIYKASTLASGVPSRFSGSGSGAEFTLTISSLQPDDFATYYCQSYFDSTTIAFGQGTKLTVL
12 | binds | MYT11050 (antibody, V domains shown, MYT9361 HC variant) VH: EVQLVESGGGLVQPGGSLRLSCTASGLSLSSYWMSWVRQAPGKGLEWVGVISAGGNTYYANWHKGRFTISRDTSKNTVYLQMNSLRAEDTAVYFCARGDDGYTNAAYVSNLWGQGTLVTVSS VL: EIVMTQSPSTLSASVGDRVIITCQASQSISSWLSWYQQKPGKAPKLLIYKASTLASGVPSRFSGSGSGAEFTLTISSLQPDDFATYYCQSYFDSTTIAFGQGTKLTVL
13 | binds | MYT11040 (antibody, V domains shown, MYT9361 HC variant) VH: EVQLVESGGGLVQPGGSLRLSCTASGLSLSSYWMSWVRQAPGKGLEWVGVISHGGNTYYANWAKGRFTISRDTSKNTVYLQMNSLRAEDTAVYFCARGDDGYTNAAYVSNLWGQGTLVTVSS VL: EIVMTQSPSTLSASVGDRVIITCQASQSISSWLSWYQQKPGKAPKLLIYKASTLASGVPSRFSGSGSGAEFTLTISSLQPDDFATYYCQSYFDSTTIAFGQGTKLTVL
14 | binds | MYT11045 (antibody, V domains shown, MYT9361 HC variant) VH: EVQLVESGGGLVQPGGSLRLSCTASGLSLSSYWMSWVRQAPGKGLEWVGVISAGGNTHYANWAKGRFTISRDTSKNTVYLQMNSLRAEDTAVYFCARGDDGYTNAAYVSNLWGQGTLVTVSS VL: EIVMTQSPSTLSASVGDRVIITCQASQSISSWLSWYQQKPGKAPKLLIYKASTLASGVPSRFSGSGSGAEFTLTISSLQPDDFATYYCQSYFDSTTIAFGQGTKLTVL
15 | binds | MYT11046 (antibody, V domains shown, MYT9361 HC variant) VH: EVQLVESGGGLVQPGGSLRLSCTASGLSLSSYWMSWVRQAPGKGLEWVGVISAGGNTYHANWAKGRFTISRDTSKNTVYLQMNSLRAEDTAVYFCARGDDGYTNAAYVSNLWGQGTLVTVSS VL: EIVMTQSPSTLSASVGDRVIITCQASQSISSWLSWYQQKPGKAPKLLIYKASTLASGVPSRFSGSGSGAEFTLTISSLQPDDFATYYCQSYFDSTTIAFGQGTKLTVL
16 | binds | MYT11041 (antibody, V domains shown, MYT9361 HC variant) VH: EVQLVESGGGLVQPGGSLRLSCTASGLSLSSYWMSWVRQAPGKGLEWVGVISAHGNTYYANWAKGRFTISRDTSKNTVYLQMNSLRAEDTAVYFCARGDDGYTNAAYVSNLWGQGTLVTVSS VL: EIVMTQSPSTLSASVGDRVIITCQASQSISSWLSWYQQKPGKAPKLLIYKASTLASGVPSRFSGSGSGAEFTLTISSLQPDDFATYYCQSYFDSTTIAFGQGTKLTVL
17 | binds | MYT11049 (antibody, V domains shown, MYT9361 HC variant) VH: EVQLVESGGGLVQPGGSLRLSCTASGLSLSSYWMSWVRQAPGKGLEWVGVISAGGNTYYANHAKGRFTISRDTSKNTVYLQMNSLRAEDTAVYFCARGDDGYTNAAYVSNLWGQGTLVTVSS VL: EIVMTQSPSTLSASVGDRVIITCQASQSISSWLSWYQQKPGKAPKLLIYKASTLASGVPSRFSGSGSGAEFTLTISSLQPDDFATYYCQSYFDSTTIAFGQGTKLTVL
18 | binds | MYT11032 (antibody, V domains shown, MYT9361 HC variant) VH: EVQLVESGGGLVQPGGSLRLSCTASGLSLSHYWMSWVRQAPGKGLEWVGVISAGGNTYYANWAKGRFTISRDTSKNTVYLQMNSLRAEDTAVYFCARGDDGYTNAAYVSNLWGQGTLVTVSS VL: EIVMTQSPSTLSASVGDRVIITCQASQSISSWLSWYQQKPGKAPKLLIYKASTLASGVPSRFSGSGSGAEFTLTISSLQPDDFATYYCQSYFDSTTIAFGQGTKLTVL
19 | binds | MYT11043 (antibody, V domains shown, MYT9361 HC variant) VH: EVQLVESGGGLVQPGGSLRLSCTASGLSLSSYWMSWVRQAPGKGLEWVGVISAGGHTYYANWAKGRFTISRDTSKNTVYLQMNSLRAEDTAVYFCARGDDGYTNAAYVSNLWGQGTLVTVSS VL: EIVMTQSPSTLSASVGDRVIITCQASQSISSWLSWYQQKPGKAPKLLIYKASTLASGVPSRFSGSGSGAEFTLTISSLQPDDFATYYCQSYFDSTTIAFGQGTKLTVL

From patent US20260209386A1 (MYTHIC THERAPEUTICS, published 2026)
